These results are taken from patent US20230227568A1 (Pieris, published 2023).

The target in test [1] is T1, human 4-1BB on cells (human, UniProt Q07011 24-255).
T1 construct: whole, on cells; Stably transfected CHO cells (flow cytometry) and bought Jurkat reporter cells (bioassay); also called Flp-In-CHO::hu4-1BB; human 4-1BB-expressing CHO cells
In words: flow cytometry, Flp-In-CHO::hu4-1BB cells. The procedure: (§1) CHO cells were stably transfected with human 4-1BB, cynomolgus 4-1BB, or a mock control using the Flp-In system (Life Technologies) according to the manufacturer's instructions. Transfected CHO cells were maintained in Ham's F12 medium (Life Technologies) supplemented with 10% Fetal Calf Serum (Biochrom) and 500 μg/ml Hygromycin B (Roth). Cells were cultured in cell culture flasks according to manufacturer's instruction (37° C., 5% CO₂ atmosphere).
(§2) 5×10⁴ cells per well were incubated for 1 h in ice-cold PBS containing 5% fetal calf serum (PBS-FCS). A dilution series of the tested multimeric proteins (SEQ ID NOs: 38-44 and 46-55), the 4-1BB-targeting lipocalin mutein as included in the multimeric proteins (SEQ ID NO: 64) or the GPC3-targeting lipocalin SEQ ID NO: 90 were added to the cells and incubated for 1 h on ice. Cells were washed twice with PBS and then incubated with a rabbit anti-NGAL or a goat anti-human IgG labeled with fluorescent dye Alexa 488 for 30 min on ice. Human IgG4 isotype (SEQ ID NOs: 29 and 30) and lipocalin mutein SEQ ID NO: 8 were tested as a negative control. Cells were subsequently washed and analyzed using iQue Flow cytometer (Intellicyte Screener). Mean geometric fluorescent signals were plotted and fitted with Graphpad software using nonlinear regression (shared bottom, four parameters, variable slope).
Background: In flow cytometry, cells or beads pass a laser one at a time.

Test [2] addresses T2, cynomolgus 4-1BB on CHO cells (cynomolgus, UniProt A9YYE7 24-254).
T2 construct: also called Flp-In-CHO::cyno4-1BB; cynomolgus 4-1BB-expressing CHO cells
Kind of test: flow cytometry, Flp-In-CHO::cyno4-1BB cells. As for the experimental part: as §1, §2

The target in test [3] is T3, recombinant hu4-1BB-His (human 4-1BB with a C-terminal polyhistidine tag, R&D Systems) (human, UniProt Q07011 24-186).
T3 construct: Bought; not shown: C-terminal polyhistidine tag
In words: ELISA, hu4-1BB-His coated, detection anti-NGAL-HRP. As for the experimental part: Recombinant hu4-1BB-His (human 4-1BB with a C-terminal polyhistidine tag, R&D Systems) at the concentration of 1 μg/mL in PBS was coated overnight on microtiter plates at 4° C. After washing with PBS-0.05% T (PBS supplemented with 0.05% (v/v) Tween 20), the plates were blocked with 2% BSA (w/v) in PBS-0.1% T (PBS supplemented with 0.1% (v/v) Tween 20) for 1 h at room temperature. After washing with 100 μL PBS-0.05% T five times, exemplary multimeric proteins (SEQ ID NOs: 38-44 and 46-53) or 4-1BB-specific lipocalin mutein as included in the multimeric protein (SEQ ID NO: 64) at different concentrations, ranging from 100 to 0.002 nM, were added to the wells and incubated for 1 h at room temperature, followed by another wash step. Bound molecules under study were detected by incubation with 1:1000 diluted anti-NGAL-HRP in PBS-0.1% T-2% BSA. After an additional wash step, fluorogenic HRP substrate (QuantaBlu, Thermo) was added to each well and the fluorescence intensity was detected using a fluorescence microplate reader.
The results of exemplary experiments are depicted in FIG. 2, together with the fit curves resulting from a 1:1 binding sigmoidal fit, where the EC₅₀ value and the maximum signal were free parameters, and the slope was fixed to one. The observed EC₅₀ values toward the hu4-1BB of all tested multimeric proteins were in the sub nanomolar range.
For orientation: An ELISA detects its analyte on a solid surface through an enzyme-linked reagent.

A further test deals with T4, hu4-1BB-Fc (R&D Systems) (human, UniProt Q07011 24-186).
T4 construct: Bought; also called human 4-1BB; not shown: human IgG Fc of the bought fusion
In words: SPR (Biacore 8K), hu4-1BB-Fc captured by anti-human IgG Fc; apparent value, 1:1 fit. The procedure: The anti-human IgG Fc antibody (GE Healthcare) was immobilized on a CM5 sensor chip using standard amine chemistry: the carboxyl groups on the chip were activated using 1-ethyl-3-(3-dimethylaminopropyl)-carbodiimide (EDC) and N-hydroxysuccinimide (NHS). Subsequently, anti-human IgG Fc antibody solution (GE Healthcare) at a concentration of 25 μg/mL in 10 mM sodium acetate (pH 5.0) was applied at a flow rate of 5 μL/min until an immobilization level of 4000-10000 resonance units (RU) was achieved. Residual non-reacted NHS-esters were blocked by passing a solution of 1 M ethanolamine across the surface. The reference channel was treated in an analogous manner. Subsequently, hu4-1BB-Fc (R&D Systems) at 0.3 μg/mL was captured by the anti-human IgG-Fc antibody at the chip surface for 180 s at a flow rate of 10 μL/min.
The binding assay was carried out with a contact time of 180 s, a dissociation time of 1200 s or 3000 s and a flow rate of 30 μL/min. All measurements were performed at 25° C. Lipocalin mutein SEQ ID NO: 64 as included in the multimeric proteins was also tested as […]. […] Prior to the protein measurements, three startup cycles were performed for conditioning purposes. Data were evaluated with Biacore Evaluation software. Double referencing was used and the 1:1 binding model was used to fit the raw data.
On the technique in general: In SPR one partner is held on a chip, and binding of the other changes the refractive index at the surface.

For test [4], the target named is T5, human GPC3 on HepG2 cells (human, UniProt P51654 25-554).
T5 construct: whole, on cells; Endogenous GPC3 of the tumor cell line; also called GPC3-positive tumor cell line HepG2; human GPC3-expressing HepG2 cells
Kind of test: flow cytometry on HepG2 cells (human GPC3), anti-NGAL detection, GeoMean BL1-H [Cont'd) C]. The procedure: GPC3-positive tumor cell line HepG2 was cultured in Dulbecco's Modified Eagle's Medium ([…], Pan Biotech) supplemented with 10% Fetal Calf Serum (Sigma-Aldrich) and in cell culture flasks according to manufacturer's instruction (37° C., 5% CO₂ atmosphere).
as §2

Another test concerns the target T6, human OX40 on cells (human, UniProt P43489 29-277).
T6 construct: whole, on cells; Stably transfected CHO cells (flow cytometry) and bought Jurkat reporter cells (OX40 bioassay); also called Flp-In-CHO::huOX40; human OX40-expressing CHO cells
T6 sequence (looked up): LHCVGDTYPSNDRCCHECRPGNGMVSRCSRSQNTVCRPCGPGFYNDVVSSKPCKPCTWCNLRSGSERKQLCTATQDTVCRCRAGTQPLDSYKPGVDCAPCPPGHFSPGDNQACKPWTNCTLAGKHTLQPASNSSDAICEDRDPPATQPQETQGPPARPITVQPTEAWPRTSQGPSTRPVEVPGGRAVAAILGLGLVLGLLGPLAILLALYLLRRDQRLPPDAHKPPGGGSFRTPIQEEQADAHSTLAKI
Kind of test: flow cytometry, Flp-In-CHO::huOX40 cells. As for the experimental part: as §2
(§3) Target-specific binding of hexavalent trimeric proteins to human 4-1BB-, OX40- or PD-L1-expressing cells was assessed by flow cytometry as described in Example 5, using CHO cells stably transfected with human 4-1BB, human OX40 or human PD-L1 (Flp-In system; Life Technologies).

For test [5], the target named is T1, human 4-1BB on cells. Kind of test: flow cytometry, Flp-In-CHO::hu4-1BB cells. The procedure: as §2, §3
This is another data set of the same source.

Test [6] deals with T1, human 4-1BB on cells. In words: flow cytometry on Flp-In-CHO::huCD137 (human 4-1BB) cells, anti-NGAL detection, GeoMean BL1-H. As for the experimental part:
as §1, §2

The target of test [7] is T2, cynomolgus 4-1BB on CHO cells. Kind of test: flow cytometry on Flp-In-CHO::cyCD137 (cynomolgus 4-1BB) cells, anti-NGAL detection, GeoMean BL1-H [Cont'd) B]. As for the experimental part: as §1, §2

Where two headings read alike, the source gives them in different places.

T1 sequence (Q07011 24-255): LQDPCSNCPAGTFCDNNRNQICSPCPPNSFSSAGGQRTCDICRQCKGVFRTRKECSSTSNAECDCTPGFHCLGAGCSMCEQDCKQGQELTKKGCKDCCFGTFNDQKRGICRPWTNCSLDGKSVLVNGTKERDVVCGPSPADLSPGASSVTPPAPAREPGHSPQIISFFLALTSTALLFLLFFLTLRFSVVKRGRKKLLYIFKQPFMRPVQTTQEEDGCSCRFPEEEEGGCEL
T2 sequence (A9YYE7 entry or part of it limits assumed): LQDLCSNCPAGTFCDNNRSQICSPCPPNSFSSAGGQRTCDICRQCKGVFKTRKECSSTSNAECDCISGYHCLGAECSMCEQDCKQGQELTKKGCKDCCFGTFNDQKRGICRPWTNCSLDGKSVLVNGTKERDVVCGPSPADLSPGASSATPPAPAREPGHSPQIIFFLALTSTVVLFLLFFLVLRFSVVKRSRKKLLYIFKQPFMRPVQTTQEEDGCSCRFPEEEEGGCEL
T5 sequence (P51654 25-554 limits assumed): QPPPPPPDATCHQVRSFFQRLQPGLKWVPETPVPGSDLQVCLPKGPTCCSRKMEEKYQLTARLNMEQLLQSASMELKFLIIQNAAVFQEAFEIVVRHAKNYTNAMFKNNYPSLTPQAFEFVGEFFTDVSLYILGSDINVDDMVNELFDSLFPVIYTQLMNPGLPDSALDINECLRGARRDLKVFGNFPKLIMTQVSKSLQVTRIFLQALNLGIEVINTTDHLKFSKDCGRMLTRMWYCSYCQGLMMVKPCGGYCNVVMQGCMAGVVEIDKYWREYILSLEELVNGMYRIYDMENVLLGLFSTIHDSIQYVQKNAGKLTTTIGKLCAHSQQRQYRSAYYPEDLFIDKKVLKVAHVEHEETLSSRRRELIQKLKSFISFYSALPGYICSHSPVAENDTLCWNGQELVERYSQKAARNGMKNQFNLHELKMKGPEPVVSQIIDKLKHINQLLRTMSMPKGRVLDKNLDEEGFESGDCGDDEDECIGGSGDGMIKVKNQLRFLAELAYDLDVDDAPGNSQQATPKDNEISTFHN

B1: 4-1BB-specific lipocalin mutein SEQ ID NO: 64 (designed binder)
chain: QDSTSDLIPAPPLSKVPLQQNFQDNQFHGKWYVVGQAGNIRLREDKDPIKMMATIYELKEDKSYDVTMVKFDDKKCMYDIWTFVPGSQPGEFTLGKIKSFPGHTSSLVRVVSTNYNQHAMVFFKFVFQNREEFYITLYGRTKELTSELKENFIRFSKSLGLPENHIVFPVPIDQCIDG
notes: Monomeric hNGAL mutein; also called 4-1BB-targeting lipocalin mutein as included in the multimeric proteins
By EC50 is commonly meant the concentration at which the effect is half-maximal. What is called koff is the rate constant with which the complex falls apart. The term kon denotes the second-order rate constant of association. In turn, B1 yielded an EC50 with human 4-1BB on cells [1] of 3.99 nM. Besides, the binding result in [2] is on record as “no binding”. For the same molecule, the EC50 in [3] turned out to be 0.41 nM. In addition, in the test with hu4-1BB-Fc (R&D Systems), the Kd came to 0.76 nM, the koff turned out to be 7.08e-05 s⁻¹ and the kon was 92700 M⁻¹ s⁻¹. For the same molecule, in test [4], the binding result is “no binding (tested: about 200 nM)”.

B2: bispecific hexavalent trimeric protein SEQ ID NO: 164 (designed binder)
chain: QDSTSDLIPAPPLSKVPLQQNFQDNQFHGKWYVVGQAGNIRLREDKDPIKMMATIYELKEDKSYDVTMVKFDDKKCMYDIWTFVPGSQPGEFTLGKIKSFPGHTSSLVRVVSTNYNQHAMVFFKFVFQNREEFYITLYGRTKELTSELKENFIRFSKSLGLPENHIVFPVPIDQCIDGGGGGSGGGGSGGGGSGVRLWATRQAMLGQVHEVPEGWLIFVAEQEELYVRVQNGFRKVQLEARTPLGGGGSGGGGSGGGGSQDSTSDLIPAPPLSKVPLQQNFQDSQFQGKWYVVGFAGNYRLREDKDPGKMQATIYELREDKAYQVTGVLFPHKKCHDDIVIFVPGSQPGEFILGWIKSDPGITSDLVRVVSTDYNQHAMVFFKWVFQNREWFYITLYGRTKALTSELKENFIRFSKSLGLPEDHIVFPVPIDQCIDGGGSGGAPEQKLISEEDLGSHHHHHHHHHH
As for B2, the figures for the EC50 with human OX40 on cells and with human 4-1BB on cells [5] were 0.71 nM and 3.03 nM, respectively.

B3: bispecific hexavalent trimeric protein SEQ ID NO: 165 (designed binder)
chain: QDSTSDLIPAPPLSKVPLQQNFQDNQFHGKWYVVGQAGNIRLREDKDPIKMMATIYELKEDKSYDVTMVKFDDKKCMYDIWTFVPGSQPGEFTLGKIKSFPGHTSSLVRVVSTNYNQHAMVFFKFVFQNREEFYITLYGRTKELTSELKENFIRFSKSLGLPENHIVFPVPIDQCIDGGGGGSGGGGSGGGGSQDSTSDLIPAPPLSKVPLQQNFQDSQFQGKWYVVGFAGNYRLREDKDPGKMQATIYELREDKAYQVTGVLFPHKKCHDDIVIFVPGSQPGEFILGWIKSDPGITSDLVRVVSTDYNQHAMVFFKWVFQNREWFYITLYGRTKALTSELKENFIRFSKSLGLPEDHIVFPVPIDQCIDGGGGGSGGGGSGGGGSGVRLWATRQAMLGQVHEVPEGWLIFVAEQEELYVRVQNGFRKVQLEARTPLGGSGGAPEQKLISEEDLGSHHHHHHHHHH
Consider B3, for which the values for the EC50 in the test with human OX40 on cells and with human 4-1BB on cells [5] were 0.18 nM and 2.19 nM, respectively.

B4: bispecific hexavalent trimeric protein SEQ ID NO: 166 (designed binder)
chain: QDSTSDLIPAPPLSKVPLQQNFQDSQFQGKWYVVGFAGNYRLREDKDPGKMQATIYELREDKAYQVTGVLFPHKKCHDDIVIFVPGSQPGEFILGWIKSDPGITSDLVRVVSTDYNQHAMVFFKWVFQNREWFYITLYGRTKALTSELKENFIRFSKSLGLPEDHIVFPVPIDQCIDGGGGGSGGGGSGGGGSQDSTSDLIPAPPLSKVPLQQNFQDNQFHGKWYVVGQAGNIRLREDKDPIKMMATIYELKEDKSYDVTMVKFDDKKCMYDIWTFVPGSQPGEFTLGKIKSFPGHTSSLVRVVSTNYNQHAMVFFKFVFQNREEFYITLYGRTKELTSELKENFIRFSKSLGLPENHIVFPVPIDQCIDGGGGGSGGGGSGGGGSGVRLWATRQAMLGQVHEVPEGWLIFVAEQEELYVRVQNGFRKVQLEARTPLGGSGGAPEQKLISEEDLGSHHHHHHHHHH
With B4, the EC50 with human OX40 on cells was 0.56 nM; with human 4-1BB on cells [5], 4.51 nM.

B5: multimeric protein SEQ ID NO: 40 (designed binder)
chain: QDSTSDLIPAPPLSKVPLQQNFQDNQFHGKWYVVGQAGNIRLREDKDPIKMMATIYELKEDKSYDVTMVKFDDKKCMYDIWTFVPGSQPGEFTLGKIKSFPGHTSSLVRVVSTNYNQHAMVFFKFVFQNREEFYITLYGRTKELTSELKENFIRFSKSLGLPENHIVFPVPIDQCIDGGGGGSGGGGSGGGGSGGGGSGGGGSGVRLWATRQAMLGQVHEVPEGWLIFVAEQEELYVRVQNGFRKVQLEARTPLGGSGGAPEQKLISEEDLGSHHHHHHHHHH
For orientation: EC50 (read off the curve) means the midpoint of the concentration-response curve. Low readings indicate an effect from little substance, high ones a need for much substance. As for B5, the EC50 in test [3] turned out to be 0.18 nM. For the same molecule, in the test with hu4-1BB-Fc (R&D Systems), the Kd came out at 1.18 nM, the koff came out at 9.75e-05 s⁻¹ and the kon was 82300 M⁻¹ s⁻¹. Also, the “EC50 (read off the curve)” value with human 4-1BB on cells [6] was about 2 nM. Also, the “EC50 (read off the curve)” value in [7] is about 1 nM.
